Source: US20210206865A1

B1: mAb16747 (REGN4515) (antibody, V domains shown)
VH: QVQLVESGGGLVKPGGSLRLSCAASGFTFSDYYISWIRQAPGKGLEWVSYISSSGSSIKYADSVKGRFTISRDNAKNSLYLQMNSLRAEDTAVYYCAREGGNYGMDVWGQGTTVTVSS
VL: DIQMTQSPSSVSASVGDRVTITCRASQGINNWLVWYQQKPGKAPKLLIYAATSLQSGVPSRFSGSGSGTDFTLTISSLQPEDFATYYCQQANSFPPTFGQGTKLEIK
B2: mAb16732 (REGN4514) (antibody, V domains shown)
VH: EVQLVESGGGLVQPGRSLRLSCAASGFTFDDYAMHWVRQAPGKGLEWVSGISWNSGNMGYADSVKGRFTISRDNAKNSLFLQMHSLRAEDTAFYYCAKVRLTAFDFWGQGTLVTVSS
VL: DIQMTQSPSSLSASVGDRVTITCRTSQSIGNYLNWFQQKPGKAPKLLIYTASSLQNGVPSRFTGSGSGTDFTLTISSLQPEDFVIYYCQQSFSTPYTFGQGTKLEIK

Molecular target: monkey BCMA-MMH (monkey BCMA with C-terminal myc-myc-hexahistidine tag) (monkey)
Assay: SPR Biacore, 25 C, mAb captured via anti-hFc

Chain of monkey BCMA-MMH (monkey BCMA with C-terminal myc-myc-hexahistidine tag) (monkey) (chain, as listed by the source limits assumed): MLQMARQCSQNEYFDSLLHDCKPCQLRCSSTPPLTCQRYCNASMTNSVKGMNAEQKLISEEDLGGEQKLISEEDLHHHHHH

Row | Binder | 90 nM mfBCMA.mmh Bind (RU)
1 | B1 | 1.9 RU
2 | B2 | 1.1 RU
